“Also recorded” adds a separate entry of the source.
Legend:
ephrin-A1 = target: T1, ephrin-A1 (Homo sapiens, UniProt P20827); assay: In vitro binding (Protein-A pull-down) assay; details: ephrin-Fc captured on Protein A Sepharose
T1 sequence (P20827 19-182 limits assumed): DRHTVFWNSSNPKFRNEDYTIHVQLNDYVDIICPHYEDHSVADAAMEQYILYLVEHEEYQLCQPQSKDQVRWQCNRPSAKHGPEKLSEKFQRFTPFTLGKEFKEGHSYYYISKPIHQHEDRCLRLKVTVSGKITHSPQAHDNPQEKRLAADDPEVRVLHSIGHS

[1] = target: T2, EphA3/ephrin-A5 Fc complex (Homo sapiens, UniProt P29320+P52803); assay: HTRF / FRET assay of EphA3/ephrin-A5/ADAM10D+C complex formation; assay type: binding; details: unlabelled protein at increasing concentrations, 320 nM complex
T2 construct: Fc fusion proteins of the ephrin-A5 and EphA3 extracellular domains fused to the hinge and Fc region of human IgG1 were produced as described
T2 sequence (P29320 21-541 limits assumed): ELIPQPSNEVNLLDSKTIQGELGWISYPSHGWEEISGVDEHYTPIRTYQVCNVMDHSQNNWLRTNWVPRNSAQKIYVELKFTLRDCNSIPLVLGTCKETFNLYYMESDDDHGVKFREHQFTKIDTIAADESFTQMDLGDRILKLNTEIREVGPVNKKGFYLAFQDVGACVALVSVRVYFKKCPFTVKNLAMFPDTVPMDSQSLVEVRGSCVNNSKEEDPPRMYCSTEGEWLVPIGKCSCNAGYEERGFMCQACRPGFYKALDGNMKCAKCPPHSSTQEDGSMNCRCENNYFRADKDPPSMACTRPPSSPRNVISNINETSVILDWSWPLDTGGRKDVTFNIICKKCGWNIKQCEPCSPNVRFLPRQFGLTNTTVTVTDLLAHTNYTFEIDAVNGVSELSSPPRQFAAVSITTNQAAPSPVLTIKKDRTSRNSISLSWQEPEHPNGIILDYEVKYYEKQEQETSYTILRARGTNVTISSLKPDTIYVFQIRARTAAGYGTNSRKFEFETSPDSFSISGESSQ
T2 sequence (P52803 21-203 limits assumed): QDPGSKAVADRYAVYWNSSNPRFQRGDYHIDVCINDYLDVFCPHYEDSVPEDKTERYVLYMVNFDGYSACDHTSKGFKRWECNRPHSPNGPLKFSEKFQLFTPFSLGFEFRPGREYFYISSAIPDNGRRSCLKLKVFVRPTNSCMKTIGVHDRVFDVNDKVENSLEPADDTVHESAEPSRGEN
Experimental: FIG. 6. Fluorescence Energy Transfer (RET) analysis monitoring the formation of EphA3/ephrin-A5/ADAM10D+C complexes. • A) The proposed screening approach for inhibitors of the complex formation is based on a Homogeneous Time Resolved Fluorescence (HTRF™) Assay using a Eu^3+ chelate labeled donor and a XL665 labeled acceptor protein. Interactions between ADAM10 and its substrate, the EphA3/ephrinA5 complex are measured using (normalized) emission at 665 nm: the interaction brings the labels into proximity and triggers fluorescence resonance energy transfer (FRET), which initiates a chemical reaction cascade to produce an amplified fluorescent signal. […]
In this regard, screening or identification of inhibitors of complex formation is based on high-throughput homogeneous time resolved fluorescence (HTRF™) technology utilising donor and acceptor fluorescence labels that are conjugated to Fc-tagged proteins. An interaction between proteins brings the labels into proximity and triggers fluorescence resonance energy transfer (FRET), which initiates a chemical reaction cascade to produce an amplified fluorescent signal. […]
The proposed drug screening approach is based on homogeneous time resolved fluorescence HTRF™ technology utilising donor and acceptor fluorescence labels that are conjugated to Fc-tagged proteins. […]

ephrin-A2 = target: T3, ephrin-A2 (Homo sapiens, UniProt O43921); assay: In vitro binding (Protein-A pull-down) assay; details: ephrin-Fc captured on Protein A Sepharose
T3 construct: incubated with Fc-tagged ectodomains of Eph-A3, EphB2, EphB4 and ephrin-A2, ephrin-A5, ephrin-B2 (R&D systems); purchased R&D systems
T3 sequence (O43921 25-188 limits assumed): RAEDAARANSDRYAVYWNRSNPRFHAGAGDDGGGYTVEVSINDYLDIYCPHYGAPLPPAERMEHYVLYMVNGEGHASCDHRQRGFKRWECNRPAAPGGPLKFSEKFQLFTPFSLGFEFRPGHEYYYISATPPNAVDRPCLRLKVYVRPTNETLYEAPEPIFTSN
Experimental: (§1) Pull-down experiments were done as follows: ADAM10D+C, ADAM17D+C w.t. or the alanine mutants (˜15 μg) were incubated with Fc-tagged ectodomains of Eph-A3, EphB2, EphB4 and ephrin-A2, ephrin-A5, ephrin-B2 (R&D systems) at 4° C. for 30 min in 500 μL of binding buffer containing 10 mM HEPES (pH 7.4), 150 mM NaCl and 0.05% of Triton X-100. To test binding to the preformed EphA3/ephrin-A5 complex, 5 μg of the untagged ephrin-A5 was incubated with Fc tagged EphA3 for 30 min at 4° C. followed by the addition of ADAM10. The proteins were incubated for an additional 30 min., when Protein-A-Sepharose (Amersham) beads were added to the reaction mixture and shaken at 4° C. for 2h. The beads were then harvested by centrifugation, washed once with 500 μl of binding buffer and the bound proteins were separated on a 10-20% gradient polyacrylamide gel. The binding of the individual ADAM domains was carried out likewise using 15 μg of the disintegrin and 8 μg of the cysteine-rich domain.

EphB4/ephrin-B2 complex = target: T4, EphB4/ephrin-B2 complex (Homo sapiens, UniProt P52799+P54760); assay: In vitro binding (Protein-A pull-down) assay; details: Protein-A capture
T4 construct: incubated with Fc-tagged ectodomains of Eph-A3, EphB2, EphB4 and ephrin-A2, ephrin-A5, ephrin-B2 (R&D systems); purchased R&D systems
Experimental: as §1

ectodomain of EphA3 = target: T5, ectodomain of EphA3 (Homo sapiens, UniProt P29320); assay: In vitro binding (Protein-A pull-down) assay; details: EphA3-Fc alone, without ephrin
T5 construct: incubated with Fc-tagged ectodomains of Eph-A3, EphB2, EphB4 and ephrin-A2, ephrin-A5, ephrin-B2 (R&D systems); purchased R&D systems
T5 sequence (P29320 21-541 limits assumed): T2 sequence (P29320 21-541 limits assumed)
Experimental: as §1

EphA3/ephrin-A5 complex = target: T6, EphA3/ephrin-A5 complex (Homo sapiens, UniProt P29320+P52803); assay: In vitro binding (Protein-A pull-down) assay
T6 construct: incubated with Fc-tagged ectodomains of Eph-A3, EphB2, EphB4 and ephrin-A2, ephrin-A5, ephrin-B2 (R&D systems)
T6 sequence (P29320 21-541 limits assumed): T2 sequence (P29320 21-541 limits assumed)
T6 sequence (P52803 21-203 limits assumed): T2 sequence (P52803 21-203 limits assumed)
Experimental: as §1

T4 sequence (P52799 28-229 limits assumed): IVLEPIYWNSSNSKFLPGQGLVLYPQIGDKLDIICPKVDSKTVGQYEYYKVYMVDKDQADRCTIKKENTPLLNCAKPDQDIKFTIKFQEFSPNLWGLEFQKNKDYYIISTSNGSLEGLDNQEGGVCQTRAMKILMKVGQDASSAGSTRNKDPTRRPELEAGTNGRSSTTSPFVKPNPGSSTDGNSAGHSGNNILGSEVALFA
T4 sequence (P54760 16-539 limits assumed): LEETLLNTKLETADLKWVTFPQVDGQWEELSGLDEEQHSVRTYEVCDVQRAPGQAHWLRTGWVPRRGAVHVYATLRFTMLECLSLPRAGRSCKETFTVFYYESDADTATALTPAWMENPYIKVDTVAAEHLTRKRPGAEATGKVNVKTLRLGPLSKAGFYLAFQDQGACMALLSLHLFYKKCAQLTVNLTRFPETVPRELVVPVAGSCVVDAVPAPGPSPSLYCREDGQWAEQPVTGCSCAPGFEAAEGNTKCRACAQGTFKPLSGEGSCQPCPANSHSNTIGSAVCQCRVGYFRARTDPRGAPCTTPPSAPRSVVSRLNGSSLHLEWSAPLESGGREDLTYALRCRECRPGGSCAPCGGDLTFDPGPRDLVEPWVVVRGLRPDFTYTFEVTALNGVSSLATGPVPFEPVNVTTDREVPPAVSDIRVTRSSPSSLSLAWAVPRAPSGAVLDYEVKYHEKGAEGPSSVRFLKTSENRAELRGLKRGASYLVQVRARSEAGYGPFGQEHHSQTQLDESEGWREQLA

B1: ADAM10D+C: recombinant bovine Adam10 disintegrin and cysteine-rich domains (residues 455-646), Fc tag removed (protein)
chain: SGQPICGNGMVEQGEECDCGYSDQCKDECCYDANQPEGKKCKLKPGKQCSPSQGPCCTAHCAFKSKTEKCRDDSDCAKEGICNGITALCPASDPKPNFTDCNRHTQVCINGQCAGSICEKHGLEECTCASSDGKDDKELCHVCCMKKMEPSTCASTGSVQWNKYFLGRTITLQPGSPCNDFRGYCDVFMRCR
For B1, the “binding to ephrin-A1” value (ephrin-A1) was “bound”, the “inhibition of the labelled ADAM10D+C - EphA3/ephrin-A5 interaction (A665/A620)” value [1] was “competitive inhibitor” and the “binding to ephrin-A2” value (ephrin-A2) was “bound”. For the same molecule, the “binding to EphB4/ephrin-B2 complex” value (EphB4/ephrin-B2 complex) was “little or no association; also recorded: does not bind”, the “binding to EphA3 ectodomain” value (ectodomain of EphA3) was “no interaction was seen” and the “binding to EphA3/ephrin-A5 complex” value (EphA3/ephrin-A5 complex; EphA3-Fc plus untagged ephrin-A5) was “readily bound and formed a stable complex; also recorded: binds”. The “amount of EphA3-bound (complexed) ephrin-A5” value (EphA3/ephrin-A5 complex; single-chain ephrin-A5 lacking Fc, captured via EphA3-Fc) was “notably increased”.

— patent US7960513B2, “Antibody against a human ADAM protease” (Monash University, priority 2004, dated 2011)
